Reference: patent US20160347802A1 (MAX PLANCK GESELLSCHAFT ZUR FOERDERUNG DER WISSENSCHAFTEN E …, published 2016)

Columns and labels:
[1] = molecular target: T1, human Netrin1, recombinant AVEXIS protein (biotinylated when immobilised) (human, UniProt O95631 25-604); assay: AVEXIS, prey NTN1 on bait NTN3
T1 construct: also called NTN1
Description: (§1) The Matn4-bait served as an internal prey-protein control and was used for normalization of the A486 nm values; conditioned medium (CM) serves as negative control; n=3.

[2] = molecular target: the molecule itself; assay: AVEXIS, prey NTN3 on bait NTN3
Description: as §1

[3] = molecular target: T2, human Netrin-4, AVEXIS protein (human, UniProt Q9HB63 19-628); assay: AVEXIS, prey NTN3 on bait NTN4
T2 construct: not shown: AVEXIS tag (bait or prey)
T2 sequence (looked up): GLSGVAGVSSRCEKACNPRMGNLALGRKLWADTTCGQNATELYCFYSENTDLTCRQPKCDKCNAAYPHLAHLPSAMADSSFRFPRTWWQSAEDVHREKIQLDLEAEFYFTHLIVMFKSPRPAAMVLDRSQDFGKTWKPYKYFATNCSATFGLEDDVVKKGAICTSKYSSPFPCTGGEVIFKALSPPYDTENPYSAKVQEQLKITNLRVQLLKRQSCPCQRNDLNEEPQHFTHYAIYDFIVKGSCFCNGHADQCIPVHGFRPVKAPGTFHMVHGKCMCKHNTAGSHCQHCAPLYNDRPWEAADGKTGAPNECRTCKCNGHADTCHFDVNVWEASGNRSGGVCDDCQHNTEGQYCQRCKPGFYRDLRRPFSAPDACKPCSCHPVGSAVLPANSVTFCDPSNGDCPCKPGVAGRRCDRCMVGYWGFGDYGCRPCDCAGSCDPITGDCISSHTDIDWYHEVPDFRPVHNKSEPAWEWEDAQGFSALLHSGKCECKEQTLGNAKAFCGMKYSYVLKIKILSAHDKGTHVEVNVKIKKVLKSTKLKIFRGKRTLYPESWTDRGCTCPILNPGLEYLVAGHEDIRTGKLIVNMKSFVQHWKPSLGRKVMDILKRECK
Description: as §1

[4] = molecular target: T1, human Netrin1, recombinant AVEXIS …; assay: AVEXIS, prey on bait NTN1; white = No binding
Description: as §1

[5] = molecular target: the molecule itself; assay: AVEXIS, prey on bait NTN3; white = No binding
Description: as §1

[6] = molecular target: T2, human Netrin-4, AVEXIS protein; assay: AVEXIS, prey on bait NTN4; white = No binding
Description: as §1

[7] = molecular target: T3, human Netrin-G1, AVEXIS protein (human, UniProt Q9Y2I2 29-510); assay: AVEXIS, prey on bait NTNG1; white = No binding
T3 construct: not shown: AVEXIS tag (bait or prey)
T3 sequence (looked up): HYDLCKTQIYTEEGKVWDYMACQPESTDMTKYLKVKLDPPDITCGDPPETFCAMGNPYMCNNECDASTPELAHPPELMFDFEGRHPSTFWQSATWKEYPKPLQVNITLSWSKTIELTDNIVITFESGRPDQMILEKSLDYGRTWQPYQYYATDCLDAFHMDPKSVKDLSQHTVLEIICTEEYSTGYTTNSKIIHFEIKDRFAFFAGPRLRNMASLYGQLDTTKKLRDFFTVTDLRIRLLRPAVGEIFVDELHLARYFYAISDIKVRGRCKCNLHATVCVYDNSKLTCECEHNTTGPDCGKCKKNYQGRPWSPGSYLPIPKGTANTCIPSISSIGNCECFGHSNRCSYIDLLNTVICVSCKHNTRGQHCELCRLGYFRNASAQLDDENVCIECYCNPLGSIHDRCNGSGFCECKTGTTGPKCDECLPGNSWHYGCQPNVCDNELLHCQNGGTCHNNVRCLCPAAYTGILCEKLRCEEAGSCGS
Description: as §1

[8] = molecular target: T4, human Netrin-G2, AVEXIS protein (human, UniProt Q96CW9 18-507); assay: AVEXIS, prey on bait NTNG2; white = No binding
T4 construct: not shown: AVEXIS tag (bait or prey)
T4 sequence (looked up): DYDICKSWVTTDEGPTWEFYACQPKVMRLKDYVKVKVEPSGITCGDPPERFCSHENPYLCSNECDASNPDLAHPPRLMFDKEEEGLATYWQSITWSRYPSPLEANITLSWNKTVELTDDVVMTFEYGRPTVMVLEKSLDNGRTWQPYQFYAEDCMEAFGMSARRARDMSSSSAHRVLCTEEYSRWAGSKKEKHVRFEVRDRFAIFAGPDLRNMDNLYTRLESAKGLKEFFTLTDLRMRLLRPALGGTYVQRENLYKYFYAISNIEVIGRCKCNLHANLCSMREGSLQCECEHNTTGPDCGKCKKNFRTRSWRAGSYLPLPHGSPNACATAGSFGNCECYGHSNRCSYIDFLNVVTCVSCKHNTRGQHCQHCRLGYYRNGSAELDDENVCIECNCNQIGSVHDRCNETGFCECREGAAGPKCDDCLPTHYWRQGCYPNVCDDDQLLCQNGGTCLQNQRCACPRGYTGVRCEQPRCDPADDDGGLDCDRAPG
Description: as §1

[9] = molecular target: T5, Matn4 ECD, mono-biotinylated bait protein (positive control); assay: AVEXIS, prey on bait Matn4 (+), positive control for the prey; dark = Binding
T5 construct: extracellular domain; also called Matn4-bait
Description: as §1

[10] = molecular target: T6, human DRAXIN, AVEXIS prey or bait protein (human, UniProt Q8NBI3 26-349); assay: AVEXIS, pentameric prey zebrafish DraxinB on bait hDRAXIN
T6 construct: It was tested in both bait and prey orientations
T6 sequence: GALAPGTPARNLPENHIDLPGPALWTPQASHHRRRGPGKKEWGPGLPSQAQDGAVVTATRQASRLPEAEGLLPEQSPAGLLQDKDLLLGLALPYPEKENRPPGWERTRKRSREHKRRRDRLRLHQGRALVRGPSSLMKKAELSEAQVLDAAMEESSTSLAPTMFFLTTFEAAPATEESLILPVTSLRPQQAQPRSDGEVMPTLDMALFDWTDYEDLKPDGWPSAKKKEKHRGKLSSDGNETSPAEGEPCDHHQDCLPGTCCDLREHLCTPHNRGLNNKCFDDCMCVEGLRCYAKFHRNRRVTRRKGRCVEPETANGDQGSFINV

[11] = molecular target: T7, zebrafish DraxinA, AVEXIS prey or bait protein (zebrafish, UniProt Q4V9H3 24-360); assay: AVEXIS, pentameric prey zebrafish DraxinB on bait zDraxinA
T7 construct: Prey and bait forms of the same protein are kept as one molecule; Preys are pentameric except in the monomeric-prey experiments; also called DraxinA prey protein
T7 chain: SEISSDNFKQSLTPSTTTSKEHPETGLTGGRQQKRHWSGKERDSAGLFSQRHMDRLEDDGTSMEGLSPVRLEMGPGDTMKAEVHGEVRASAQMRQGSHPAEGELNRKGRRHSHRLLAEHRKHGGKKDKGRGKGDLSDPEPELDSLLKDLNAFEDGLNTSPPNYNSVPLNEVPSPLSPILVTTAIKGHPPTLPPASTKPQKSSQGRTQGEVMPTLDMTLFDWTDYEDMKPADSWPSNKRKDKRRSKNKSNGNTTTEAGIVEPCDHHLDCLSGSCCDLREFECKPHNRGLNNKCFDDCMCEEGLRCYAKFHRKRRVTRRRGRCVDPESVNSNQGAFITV

[12] = molecular target: the molecule itself; assay: AVEXIS, pentameric prey zebrafish DraxinB on bait zDraxinB
[13] = molecular target: T7, zebrafish DraxinA, AVEXIS prey or bait …; assay: AVEXIS, prey on bait zDraxinA, lower value; white = No binding
[14] = molecular target: T7, zebrafish DraxinA, AVEXIS prey or bait …; assay: AVEXIS, prey on bait zDraxinA, upper value; white = No binding
[15] = molecular target: the molecule itself; assay: AVEXIS, prey on bait zDraxinB, lower value; white = No binding
[16] = molecular target: the molecule itself; assay: AVEXIS, prey on bait zDraxinB, upper value; white = No binding
[17] = molecular target: T8, zebrafish Netrin1a, AVEXIS bait or prey protein (zebrafish); assay: AVEXIS competition: Netrin1a bait, DCC prey, purified Draxin as inhibitor
T8 construct: Prey and bait forms are kept as one molecule; also called Ntn1a; Netrin1a bait
Description: (§2) The procedure of the competition assay is based on the AVEXIS assay.

[18] = molecular target: T8, zebrafish Netrin1a, AVEXIS bait or prey …; assay: AVEXIS competition: Netrin1a bait, Unc5b prey, purified Draxin as inhibitor
Description: as §2

[19] = molecular target: T8, zebrafish Netrin1a, AVEXIS bait or prey …; assay: AVEXIS competition: Netrin1a bait, monomeric DCC prey, Draxin added 30 min before the prey
[20] = molecular target: T8, zebrafish Netrin1a, AVEXIS bait or prey …; assay: AVEXIS competition: Netrin1a bait, monomeric DCC prey, Draxin added together with the prey
Description: as §2
In order to do so we carried out an AVEXIS based competition assay and tested three different settings (FIG. 9A).

[21] = molecular target: T8, zebrafish Netrin1a, AVEXIS bait or prey …; assay: AVEXIS competition: Netrin1a bait preincubated with monomeric DCC prey, Draxin added 30 min after the prey

B1: human Netrin-3, AVEXIS protein (ligand)
chain: not shown
notes: not shown: AVEXIS tag (bait or prey)
B1: no binding [1]; no binding [2]; no binding [3]. It also gave an A486nm [4] of 0.068, an A486nm [5] of 0.068 and an A486nm [6] of 0.064. The A486nm [7] was 0.069, the A486nm [8] was 0.06 and the A486nm [9] was 0.224.

B2: zebrafish DraxinB, AVEXIS protein (ligand)
chain: TNTHHNSPMEVFSENIIIPPKPEASIHHHTHQRTDRGRKERMTASQLRERPRIAIFHTQNEGPDLEGLSPVRLEMEPADKRRVMTPRKKTFMGSDSLIQEKMNISPGAETPEKAMRRPTVRKVFGGHITRAPHEEESLASGKKRRVSFDQRLNKASFGSPTEPVLPAATVGTFILPITAAVDGNPNPSSEPQVRRYLGGDVAPTFNMALFDWTDYEDMRPGDKKQYSKKQGSEKQATQSPSTGLVRLTSENNVCKHHLDCLPGSCCNLRKHVCELHNRGFNNKCYDSCMCEEGLRCYAKSHRHYRITRKKGQCVDPEDLNHAVSRWMQM
B2: no binding [10]; no binding [11]; no binding [12]. For the same binder, the A486nm [13] was 0.056, the A486nm [14] was 0.061 and the A486nm [15] was 0.059. It also gave an A486nm [16] of 0.057.

B3: purified His-tagged full-length zebrafish Draxin protein (Draxin-CD4d3+4-6XHis) (ligand)
chain: T7 chain
notes: Expressed in HEK293-6E cells and purified on HisTrap HP; also called purified full length DraxinA; purified DraxinA; not shown: rat Cd4d3+4 tag and 6xHis
With B3 the “IC50 (read off the curve)” value [17] was about 70 nM, the “IC50 (read off the curve)” value [18] was about 10 nM and the “IC50 (read off the curve)” value [19] was about 7 nM. The “IC50 (read off the curve)” value [20] was about 10 nM and the “IC50 (read off the curve)” value [21] was about 20 nM.
